In patent US20160194391A1 (AstraZeneca / MedImmune, published 2016):
Values belong to the binder of their own block, whether it stands above or below them.

Assays:
3×FLAG-IL-6 [1] = target: T1, 3×FLAG-IL-6 (human); experiment: SPR, 3×FLAG-IL-6 captured by anti-FLAG M2 on protein G, scFv as analyte (1-100 nM)
T1 construct: it may hold the pre-pro-trypsin leader

3×FLAG-IL-6 [2] = target: T1, 3×FLAG-IL-6; experiment: SPR, 3×FLAG-IL-6 captured by anti-FLAG M2 on protein G, scFv as analyte
human IL-6 [3] = target: T2, human IL-6 (human, UniProt P05231 30-212); experiment: cell-based or functional assay
3×FLAG-IL-6 [4] = target: T1, 3×FLAG-IL-6; experiment: SPR, 3×FLAG-IL-6 captured by anti-FLAG M2 on protein G, scFv as analyte (1-100 nM); remark: listed apart in the source
Procedure: Equilibrium constants for scFvs were determined as previously described; however, the protocol was modified so that an epitope tagged IL-6 was captured on the chip surface and the dissociation of anti-IL-6 scFvs from IL-6 was monitored. Briefly, anti-FLAG® M2 antibody (200472, Agilent Technologies, Santa Clara, Calif.) was bound to Protein G, and then 3×FLAG-IL-6 was captured by the anti-FLAG antibody. The anti-IL-6 scFvs were assayed over a range of concentrations between 1 and 100 nM.
Anti IL-6 scFvs, humanized using the one step method, retained IL-6 neutralization activity when expressed in mammalian cells, as shown for 13A8 (FIG. 11A and FIG. 11B), 28D2 and 9C8 v3-1 (FIG. 11C).

human IL-6 [5] = target: T2, human IL-6; experiment: cell-based or functional assay; remark: listed apart in the source
human IL-6 [6] = target: T2, human IL-6; experiment: cell-based or functional assay; remark: listed apart in the source

T1 sequence (chain, as listed by the source limits assumed): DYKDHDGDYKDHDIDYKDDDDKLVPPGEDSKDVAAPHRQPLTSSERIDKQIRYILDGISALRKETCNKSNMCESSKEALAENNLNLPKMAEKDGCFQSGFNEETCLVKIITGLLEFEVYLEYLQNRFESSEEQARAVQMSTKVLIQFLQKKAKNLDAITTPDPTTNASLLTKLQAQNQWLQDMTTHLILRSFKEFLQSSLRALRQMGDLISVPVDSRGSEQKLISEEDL

B3: 13A8c-PEG20 (scFv)
scFv: DIQLTQSPSFLSASVGDRVTITCQASQSISNELSWYQQKPGKAPKLLIYRASTLTSGVPSRFSGSGSGTEFTLTISSLQPEDFATYYCQQGYNSNDVDNVFGGGTKVEIKGGGGSGGGGSGGGGSGGGGSEVQLVESGGGLVQPGGSLRLSCTVSGIDLSSYDLSWVRQAPGKGLEWVGYIYTDSSTWYANWAKGRFTISRDNSKNTLYLQLNSLRAEDTAVYYCARGSTDYAFDTRLDLWGQGTLVTVSS
modifications: C-terminal azidohomoalanine (Aha) conjugated to 20 kDa linear PEG bis-alkyne
EC50 (pg/mL) of the folded scFv-PEG (human IL-6 [5]): 93 pg/mL

B4: 13A8L-PEG20 (scFv)
scFv: B3 scFv
modifications: azidohomoalanine (Aha) in the linker (13A8L) conjugated to 20 kDa linear PEG bis-alkyne
EC50 (pg/mL) of the folded scFv-PEG (human IL-6 [5]): 278 pg/mL

B6: 13A8 humanized scFv (mammalian expressed) (scFv)
scFv: DIQLTQSPSFLSASVGDRVTITCQASQSISNELSWYQQKPGKAPKLLIYRASTLTSGVPSRFSGSGSGTEFTLTISSLQPEDFATYYCQQGYNSNDVDNVFGGGTKVEIKGGGGSGGGGSGGGGSGGGGSEVQLVESGGGLVQPGGSLRLSCTVSGIDLSSYDMSWVRQAPGKGLEWVGYIYTDSSTWYANWAKGRFTISRDNSKNTLYLQMNSLRAEDTAVYYCARGSTDYAFDTRLDLWGQGTLVTVSSGPPPPHHHHHH
notes: also called humanized scFv 13A8; mammalian 13A8 scFv
EC50, neutralization of IL-6 (human IL-6 [6]): 0.059 ng/mL
EC50, inhibition of IL-6 induced B9 cell proliferation (human IL-6 [3]): 0.064 ng/mL
Kd (3×FLAG-IL-6 [4]): 0.0982 nM
koff (3×FLAG-IL-6 [4]): 8.64e-05 s⁻¹
kon (3×FLAG-IL-6 [4]): 876000 M⁻¹ s⁻¹

Further lines, results first:

Kd (3×FLAG-IL-6 [1]): 0.052 nM
koff (3×FLAG-IL-6 [1]): 7.6e-05 s⁻¹
kon (3×FLAG-IL-6 [1]): 1.45e+06 M⁻¹ s⁻¹
Kd (3×FLAG-IL-6 [2]): 0.0674 nM
koff (3×FLAG-IL-6 [2]): 7.1e-05 s⁻¹
kon (3×FLAG-IL-6 [2]): 1.05e+06 M⁻¹ s⁻¹
B1: 28D2-C Aha (scFv)
scFv: MAHHHHHHPPPPAAADIQLTQSPSFLSASVGDRVTITCQASEDLFSSLAWYQQKPGKAPKLLIYSASTLASGVPSRFSGSGSGTDFTLTISSLQPEDFATYYCLGLYYYLTPDPIYGFGGGTKVEIKGGGGSGGGGSGGGGSGGGGSEVQLVESGGGLVQPGGSLRLSCTVSGLSLSKNAIAWVRQAPGKGLEWVGIIYAGGATTYASWAKGRFTISRDNSKNTLYLQLNSLRAEDTAVYYCAREYAGDSYYTGYTQLDLWGQGTLVTVSSGM
modifications: azidohomoalanine (Aha) in place of the single Met, at the C terminus

Kd (3×FLAG-IL-6 [1]): 0.109 nM
koff (3×FLAG-IL-6 [1]): 0.0001 s⁻¹
kon (3×FLAG-IL-6 [1]): 918000 M⁻¹ s⁻¹
EC50, inhibition of IL-6 induced B9 cell proliferation (human IL-6 [3]): 0.043 ng/mL
Kd (3×FLAG-IL-6 [4]): 0.109 nM
koff (3×FLAG-IL-6 [4]): 0.0001 s⁻¹
kon (3×FLAG-IL-6 [4]): 918000 M⁻¹ s⁻¹
B2: 28D2 humanized scFv (mammalian expressed) (scFv)
scFv: DIQLTQSPSFLSASVGDRVTITCQASEDLFSSLAWYQQKPGKAPKLLIYSASTLASGVPSRFSGSGSGTDFTLTISSLQPEDFATYYCLGLYYYLTPDPIYGFGGGTKVEIKGGGGSGGGGSGGGGSGGGGSEVQLVESGGGLVQPGGSLRLSCTVSGLSLSKNAIAWVRQAPGKGLEWVGIIYAGGATTYASWAKGRFTISRDNSKNTLYLQMNSLRAEDTAVYYCAREYAGDSYYTGYTQLDLWGQGTLVTVSSGPPPPHHHHHH
notes: also called 28D2 scFv

EC50 (pg/mL) of the folded scFv-PEG (human IL-6 [5]): 1980 pg/mL
B5: 13A8n-PEG20 (scFv)
scFv: B3 scFv
modifications: N-terminal azidohomoalanine (Aha) conjugated to 20 kDa linear PEG bis-alkyne
